From PMC4626678 (2015) come the findings set out here.

For assay [1], the target named is T1, trypsin (Bos taurus, UniProt P00760).
T1 chain: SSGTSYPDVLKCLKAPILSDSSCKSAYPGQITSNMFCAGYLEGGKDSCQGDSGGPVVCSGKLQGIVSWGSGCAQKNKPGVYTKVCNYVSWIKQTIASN
Put plainly: SPR.

The next assay has as its target alpha-chymotrypsin (Bos taurus, UniProt P00766). Put plainly: SPR.
The target in assay [2] is T1, trypsin. Description: enzyme inhibition (Dixon, BAPNA).

B1: HCRG2 (protein)
chain: RGICLEPKVVGPCKARIRRFYYDSETGKCTPFIYGGCGGNGNNFETLHACRGICRA
As for B1, the Kd worked out at 0.68 nM with trypsin [1] and 1.6 nM with alpha-chymotrypsin. In the assay with trypsin [2], this molecule came in with a Ki of 50 nM.

B2: HCRG1 (protein)
chain: RGICSEPKVVGPCKAGLRRFYYDSETGECKPFIYGGCKGNKNNFETLHACRGICRA
On to B2, for which the values for the Kd in the assay with trypsin [1] and with alpha-chymotrypsin were 0.22 nM and 1.8 nM, respectively. This molecule displayed a Ki in the assay with trypsin [2] of 28 nM.
